Assay results: PMC10397247
Where two headings read alike, the source gives them in different places.

Tests used:
4H3777-AA = target: T1, 4H3777-AA; experiment: two-hybrid library CCmax;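 note: natural log of median RNA to DNA barcode read ratio; higher means stronger binding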
T1 chain: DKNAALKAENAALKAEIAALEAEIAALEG

4H380-AA = target: T2, 4H380-AA; experiment: two-hybrid library CCmax; settings: mean of both orientations;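 note: natural log of median RNA to DNA barcode read ratio; higher means stronger binding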
T2 chain: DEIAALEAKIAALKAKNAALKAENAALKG

4H3915-AA = target: T3, 4H3915-AA; experiment: two-hybrid library CCmax; settings: mean of both orientations;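 note: natural log of median RNA to DNA barcode read ratio; higher means stronger binding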
T3 chain: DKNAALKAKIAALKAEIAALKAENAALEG

4H3974-AA = target: T4, 4H3974-AA; experiment: two-hybrid library CCmax; settings: mean of both orientations;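 note: natural log of median RNA to DNA barcode read ratio; higher means stronger binding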
T4 chain: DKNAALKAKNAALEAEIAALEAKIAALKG

4H432-AA = target: T5, 4H432-AA; experiment: two-hybrid library CCmax; settings: mean of both orientations;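 note: natural log of median RNA to DNA barcode read ratio; higher means stronger binding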
T5 chain: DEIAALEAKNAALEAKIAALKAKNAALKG

4H446-AA = target: T6, 4H446-AA; experiment: two-hybrid library CCmax; settings: mean of both orientations;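 note: natural log of median RNA to DNA barcode read ratio; higher means stronger binding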
T6 chain: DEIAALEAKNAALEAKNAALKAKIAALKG

4H63-AA = target: T7, 4H63-AA; experiment: two-hybrid library CCmax; settings: mean of both orientations
T7 chain: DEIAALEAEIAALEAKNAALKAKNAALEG

4H717-bA = target: T8, 4H717-bA; experiment: two-hybrid library CCNG1
T8 chain: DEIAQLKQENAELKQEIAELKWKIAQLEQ

4H72-bA = target: T9, 4H72-bA; experiment: two-hybrid library CCNG1
T9 chain: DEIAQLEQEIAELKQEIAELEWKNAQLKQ

4H754-bA = target: T10, 4H754-bA; experiment: two-hybrid library CCNG1
T10 chain: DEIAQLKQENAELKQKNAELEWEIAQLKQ

4H797-bA = target: T11, 4H797-bA; experiment: two-hybrid library CCNG1
T11 chain: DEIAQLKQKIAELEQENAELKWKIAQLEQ

4H883-bA = target: T12, 4H883-bA; experiment: two-hybrid library CCNG1
T12 chain: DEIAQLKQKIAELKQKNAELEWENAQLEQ

4H908-bA = target: T13, 4H908-bA; experiment: two-hybrid library CCNG1
T13 chain: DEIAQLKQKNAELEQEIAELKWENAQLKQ

4H918-bA = target: T14, 4H918-bA; experiment: two-hybrid library CCNG1
T14 chain: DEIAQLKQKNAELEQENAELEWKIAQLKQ

4H953-bA = target: T15, 4H953-bA; experiment: two-hybrid library CCNG1
T15 chain: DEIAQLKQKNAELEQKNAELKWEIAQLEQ

4H967-bA = target: T16, 4H967-bA; experiment: two-hybrid library CCNG1
T16 chain: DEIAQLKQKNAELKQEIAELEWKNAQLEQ

4H953-bH = target: T17, 4H953-bH; experiment: two-hybrid library CCNG1
T17 chain: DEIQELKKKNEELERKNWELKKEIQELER

4H967-bH = target: T18, 4H967-bH; experiment: two-hybrid library CCNG1
T18 chain: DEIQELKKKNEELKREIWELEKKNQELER

4H968-bH = target: T19, 4H968-bH; experiment: two-hybrid library CCNG1
T19 chain: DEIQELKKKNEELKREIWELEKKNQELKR

4H607-bA = target: T20, 4H607-bA; experiment: two-hybrid library CCNG1
T20 chain: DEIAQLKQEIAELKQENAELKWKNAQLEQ

4H687-bA = target: T21, 4H687-bA; experiment: two-hybrid library CCNG1
T21 chain: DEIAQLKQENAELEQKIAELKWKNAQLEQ

4H3629-AA = target: T22, 4H3629-AA; experiment: two-hybrid library CCmax
T22 chain: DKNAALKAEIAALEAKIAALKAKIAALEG

4H3782-AA = target: T23, 4H3782-AA; experiment: two-hybrid library CCmax; settings: mean of both orientations
T23 chain: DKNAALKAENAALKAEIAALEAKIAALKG

4H3939-AA = target: T24, 4H3939-AA; experiment: two-hybrid library CCmax; settings: mean of both orientations
T24 chain: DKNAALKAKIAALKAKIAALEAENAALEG

4H3969-AA = target: T25, 4H3969-AA; experiment: two-hybrid library CCmax; settings: mean of both orientations
T25 chain: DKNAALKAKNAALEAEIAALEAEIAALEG

4H464-AA = target: T26, 4H464-AA; experiment: two-hybrid library CCmax; settings: mean of both orientations
T26 chain: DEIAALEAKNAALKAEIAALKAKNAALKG

4H483-AA = target: T27, 4H483-AA; experiment: two-hybrid library CCmax; settings: mean of both orientations
T27 chain: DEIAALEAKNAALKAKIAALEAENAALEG

4H3588-AA = target: T28, 4H3588-AA; experiment: two-hybrid library CCmax
T28 chain: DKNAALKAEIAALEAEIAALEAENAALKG

4H3606-AA = target: T29, 4H3606-AA; experiment: two-hybrid library CCmax; settings: mean of both orientations
T29 chain: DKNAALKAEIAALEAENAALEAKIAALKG

4H3631-AA = target: T30, 4H3631-AA; experiment: two-hybrid library CCmax; settings: mean of both orientations
T30 chain: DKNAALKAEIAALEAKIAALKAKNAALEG

4H3697-AA = target: T31, 4H3697-AA; experiment: two-hybrid library CCmax; settings: mean of both orientations
T31 chain: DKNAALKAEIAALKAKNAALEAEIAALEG

4H3718-AA = target: T32, 4H3718-AA; experiment: two-hybrid library CCmax; settings: mean of both orientations
T32 chain: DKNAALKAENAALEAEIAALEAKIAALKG

4H384-AA = target: T33, 4H384-AA; experiment: two-hybrid library CCmax; settings: mean of both orientations
T33 chain: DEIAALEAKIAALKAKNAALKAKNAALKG

4H3865-AA = target: T34, 4H3865-AA; experiment: two-hybrid library CCmax; settings: mean of both orientations
T34 chain: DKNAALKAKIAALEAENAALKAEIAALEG

4H697-AA = target: T35, 4H697-AA; experiment: two-hybrid library CCmax; settings: mean of both orientations
T35 chain: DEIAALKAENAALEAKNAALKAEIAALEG

4H982-AA = target: T36, 4H982-AA; experiment: two-hybrid library CCmax; settings: mean of both orientations
T36 chain: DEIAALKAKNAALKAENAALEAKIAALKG

B1: 4H3777-AA (peptide)
chain: DKNAALKAENAALKAEIAALEAEIAALEG
4H3777-AA
  interaction score: -0.62
4H380-AA
  interaction score: -1.42
4H3915-AA
  interaction score: -0.495
4H3974-AA
  interaction score: -0.511
4H432-AA
  interaction score: -1.01
4H446-AA
  interaction score: -0.779
4H63-AA
  interaction score: -1.54

B2: 4H717-bA (peptide)
chain: DEIAQLKQENAELKQEIAELKWKIAQLEQ
4H717-bA
  interaction score: 0.924
4H72-bA
  interaction score: 0.154
4H754-bA
  interaction score: -0.36
4H797-bA
  interaction score: -1.13
4H883-bA
  interaction score: -1.09
4H908-bA
  interaction score: 0.244
4H918-bA
  interaction score: -0.185
4H953-bA
  interaction score: -0.433
4H967-bA
  interaction score: -0.574

B3: 4H953-bH (peptide)
chain: DEIQELKKKNEELERKNWELKKEIQELER
4H953-bH
  interaction score: -0.129
4H967-bH
  interaction score: -0.919
4H968-bH
  interaction score: -1.63

B4: 4H607-bA (peptide)
chain: DEIAQLKQEIAELKQENAELKWKNAQLEQ
4H607-bA
  interaction score: 0.454
4H687-bA
  interaction score: -0.84
4H717-bA
  interaction score: -0.469
4H72-bA
  interaction score: -0.746
4H754-bA
  interaction score: -0.503
4H797-bA
  interaction score: -0.394
4H883-bA
  interaction score: -1.28
4H908-bA
  interaction score: -0.62
4H918-bA
  interaction score: -1.07
4H953-bA
  interaction score: -0.667
4H953-bH
  interaction score: -1.41
4H967-bA
  interaction score: -1.29

B5: 4H3629-AA (peptide)
chain: DKNAALKAEIAALEAKIAALKAKIAALEG
4H3629-AA
  interaction score: 1.82
4H3777-AA; mean of both orientations
  interaction score: -0.576
4H3782-AA
  interaction score: -0.119
4H380-AA
  interaction score: -1.46
4H3915-AA
  interaction score: -0.761
4H3939-AA
  interaction score: -0.964
4H3969-AA
  interaction score: -1.01
4H3974-AA
  interaction score: 0.236
4H432-AA
  interaction score: -2.37
4H446-AA
  interaction score: -1.96
4H464-AA
  interaction score: -1.75
4H483-AA
  interaction score: -1.87
4H63-AA
  interaction score: -0.266

B6: 4H3588-AA (peptide)
chain: DKNAALKAEIAALEAEIAALEAENAALKG
4H3588-AA
  interaction score: -1.05
4H3606-AA
  interaction score: -1.57
4H3631-AA
  interaction score: -0.285
4H3697-AA
  interaction score: -2.28
4H3718-AA
  interaction score: 0.71
4H384-AA
  interaction score: 1.38
4H3865-AA
  interaction score: -1.15
4H697-AA
  interaction score: -1.44
4H982-AA
  interaction score: -1.37
